Kd data for one molecule are collected here from CN105384819A (UNIV CHINA PHARMA, dated 2016).

Usually Kd stands for the concentration at which binding is half-saturated. A higher Kd goes with a looser complex.

This experiment deals with T1, rhDLL4(重组人DLL4) (human, UniProt Q9NR61 27-524, limits assumed).
T1 construct: Immobilised on a CM5 chip for SPR and coated on 96-well plates for the MTT assay; also called 人DLL4抗原; DLL4抗原
The experiment in a line: SPR, Biacore X100, rhDLL4 immobilised on CM5 chip, antibody injected at 0.098-12.5 nM. A general note: In SPR one partner is held on a chip, and binding of the other changes the refractive index at the surface.

T1 sequence (Q9NR61 27-524 limits assumed): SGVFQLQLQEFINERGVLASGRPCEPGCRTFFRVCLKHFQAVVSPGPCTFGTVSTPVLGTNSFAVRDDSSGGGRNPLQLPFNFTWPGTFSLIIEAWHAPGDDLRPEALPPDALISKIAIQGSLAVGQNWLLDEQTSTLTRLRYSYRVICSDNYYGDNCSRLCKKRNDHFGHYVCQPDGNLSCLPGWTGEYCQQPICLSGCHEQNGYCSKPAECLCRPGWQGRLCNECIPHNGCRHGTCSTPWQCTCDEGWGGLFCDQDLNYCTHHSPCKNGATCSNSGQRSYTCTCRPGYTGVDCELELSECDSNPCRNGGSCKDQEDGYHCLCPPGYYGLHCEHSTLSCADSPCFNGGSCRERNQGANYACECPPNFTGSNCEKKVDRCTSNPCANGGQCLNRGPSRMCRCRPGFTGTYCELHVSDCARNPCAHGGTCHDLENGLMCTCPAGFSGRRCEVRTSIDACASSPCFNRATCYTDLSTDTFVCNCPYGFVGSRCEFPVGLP

B1: 抗人DLL4人源化抗体H3L2 (antibody, human IgG1, lambda, V domains shown)
VH: QVQLVQSGAEVKKPGSSVKVSCKASGYTFSGYWMQWIKQAPGQGLEWIGAIYPGDGDTRYTQKFKGRATLTADKSTSTAYMELSSLRSEDTAVYYCAGGNFFFDYWGQGTLVTVSS
VL: EIVITQSPDFQSVTPKEKVTITCSVSSSISSSYLHWYQQKPDQSPKPWIYGTSNLASGVPSRFSGSGSGTDYTLTINSLEAEDAATYYCQQWSSSPLTFGQGTKLEIKV
notes: also called 抗DLL4人源化抗体
The molecule B1 displayed a Kd of 2.26 pM. This counts as picomolar.
